Reference: publication PMC7889885

T1: mouse KCC2 (mKCC2a, SLC12A5), twin-Strep tagged, as prepared for cryo-EM (mouse), Q91V14
T1 chain: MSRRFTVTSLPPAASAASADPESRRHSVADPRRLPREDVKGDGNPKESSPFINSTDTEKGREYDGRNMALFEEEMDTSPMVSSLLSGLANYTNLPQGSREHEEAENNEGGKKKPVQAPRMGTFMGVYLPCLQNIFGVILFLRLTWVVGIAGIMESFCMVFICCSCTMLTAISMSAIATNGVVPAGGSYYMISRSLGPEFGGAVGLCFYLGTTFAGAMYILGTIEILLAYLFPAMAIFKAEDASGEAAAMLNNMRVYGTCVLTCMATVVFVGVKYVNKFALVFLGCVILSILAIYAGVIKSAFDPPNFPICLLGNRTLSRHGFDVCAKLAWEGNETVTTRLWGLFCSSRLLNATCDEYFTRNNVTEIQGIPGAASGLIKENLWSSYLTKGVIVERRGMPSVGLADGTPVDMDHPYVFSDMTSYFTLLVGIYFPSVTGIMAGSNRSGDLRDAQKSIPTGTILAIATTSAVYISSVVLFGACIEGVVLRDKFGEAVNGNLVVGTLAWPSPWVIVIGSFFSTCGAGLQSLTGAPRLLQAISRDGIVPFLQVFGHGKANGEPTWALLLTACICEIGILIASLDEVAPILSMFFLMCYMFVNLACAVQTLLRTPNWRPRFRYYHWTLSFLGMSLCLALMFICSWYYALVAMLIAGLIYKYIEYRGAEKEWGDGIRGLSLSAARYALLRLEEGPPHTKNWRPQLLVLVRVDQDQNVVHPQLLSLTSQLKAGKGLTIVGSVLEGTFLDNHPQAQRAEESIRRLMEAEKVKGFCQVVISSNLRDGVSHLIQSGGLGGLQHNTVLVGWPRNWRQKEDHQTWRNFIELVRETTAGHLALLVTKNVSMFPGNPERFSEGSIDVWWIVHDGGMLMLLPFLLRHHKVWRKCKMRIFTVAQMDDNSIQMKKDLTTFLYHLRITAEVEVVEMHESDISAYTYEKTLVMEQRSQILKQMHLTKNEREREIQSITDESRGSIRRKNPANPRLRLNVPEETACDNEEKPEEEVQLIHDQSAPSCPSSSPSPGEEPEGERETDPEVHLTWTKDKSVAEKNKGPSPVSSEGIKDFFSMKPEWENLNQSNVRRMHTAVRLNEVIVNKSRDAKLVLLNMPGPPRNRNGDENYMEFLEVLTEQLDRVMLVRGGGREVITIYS

T2: human NKCC1 (hNKCC1a, SLC12A2), twin-Strep tagged, as prepared for cryo-EM (human), P55011
T2 chain: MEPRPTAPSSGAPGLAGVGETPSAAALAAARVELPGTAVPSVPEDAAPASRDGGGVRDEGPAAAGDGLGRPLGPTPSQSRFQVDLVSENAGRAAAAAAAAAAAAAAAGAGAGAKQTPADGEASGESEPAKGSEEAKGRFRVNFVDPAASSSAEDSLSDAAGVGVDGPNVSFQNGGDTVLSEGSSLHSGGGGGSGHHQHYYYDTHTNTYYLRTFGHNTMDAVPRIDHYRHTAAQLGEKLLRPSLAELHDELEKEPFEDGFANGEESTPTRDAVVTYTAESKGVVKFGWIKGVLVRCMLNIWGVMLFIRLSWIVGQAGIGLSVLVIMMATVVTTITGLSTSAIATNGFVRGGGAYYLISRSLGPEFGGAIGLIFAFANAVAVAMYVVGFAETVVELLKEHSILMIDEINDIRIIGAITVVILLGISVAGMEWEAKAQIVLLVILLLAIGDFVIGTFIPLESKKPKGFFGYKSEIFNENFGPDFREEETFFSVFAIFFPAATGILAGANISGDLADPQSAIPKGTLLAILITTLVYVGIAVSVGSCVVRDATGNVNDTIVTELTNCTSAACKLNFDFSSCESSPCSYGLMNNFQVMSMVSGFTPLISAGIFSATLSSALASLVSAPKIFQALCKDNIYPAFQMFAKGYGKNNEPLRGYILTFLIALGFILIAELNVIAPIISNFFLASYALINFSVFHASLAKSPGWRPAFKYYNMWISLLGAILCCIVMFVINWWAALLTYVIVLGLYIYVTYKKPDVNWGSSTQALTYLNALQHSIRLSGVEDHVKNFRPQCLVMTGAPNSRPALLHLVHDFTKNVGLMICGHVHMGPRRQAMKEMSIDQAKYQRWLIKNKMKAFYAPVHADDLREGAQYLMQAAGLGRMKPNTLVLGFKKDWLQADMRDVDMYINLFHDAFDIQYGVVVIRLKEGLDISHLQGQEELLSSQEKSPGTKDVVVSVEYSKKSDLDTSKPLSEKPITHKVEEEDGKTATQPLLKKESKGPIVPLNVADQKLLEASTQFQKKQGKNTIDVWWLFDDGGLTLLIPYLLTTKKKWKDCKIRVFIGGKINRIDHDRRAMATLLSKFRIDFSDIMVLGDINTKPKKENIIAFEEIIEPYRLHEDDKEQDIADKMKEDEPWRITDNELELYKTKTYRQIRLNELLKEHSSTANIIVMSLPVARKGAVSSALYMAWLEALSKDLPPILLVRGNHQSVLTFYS


Tests used:
[1] = target: T1, mouse KCC2 (mKCC2a, SLC12A5), …; assay: cryo-EM structure; single-particle cryo-EM of the purified transporter in 20 mM HEPES pH 7.4, 150 mM NaCl, 0.1% digitonin, ~10 mg/ml; C2 symmetry imposed; details: remark: other sources report otherwise
[2] = target: T2, human NKCC1 (hNKCC1a, SLC12A2), …; assay: as above; details: remark: other sources report otherwise

| stoichiometry N [1] | stoichiometry N [2] | Binder |
| --- | --- | --- |
| 2 |  | mouse KCC2 (mKCC2a, SLC12A5), twin-Strep tagged, as prepared for cryo-EM, Q91V14 1-1138 (natural protein, here or on the partner: phosphorylation at T929 and T1029 (confirmed by mass spectrometry); phosphorylation at T929 and T1029 (confirmed by mass spectrometry)) MSRRFTVTSLPPAASAASADPESRRHSVADPRRLPREDVKGDGNPKESSPFINSTDTEKGREYDGRNMALFEEEMDTSPMVSSLLSGLANYTNLPQGSREHEEAENNEGGKKKPVQAPRMGTFMGVYLPCLQNIFGVILFLRLTWVVGIAGIMESFCMVFICCSCTMLTAISMSAIATNGVVPAGGSYYMISRSLGPEFGGAVGLCFYLGTTFAGAMYILGTIEILLAYLFPAMAIFKAEDASGEAAAMLNNMRVYGTCVLTCMATVVFVGVKYVNKFALVFLGCVILSILAIYAGVIKSAFDPPNFPICLLGNRTLSRHGFDVCAKLAWEGNETVTTRLWGLFCSSRLLNATCDEYFTRNNVTEIQGIPGAASGLIKENLWSSYLTKGVIVERRGMPSVGLADGTPVDMDHPYVFSDMTSYFTLLVGIYFPSVTGIMAGSNRSGDLRDAQKSIPTGTILAIATTSAVYISSVVLFGACIEGVVLRDKFGEAVNGNLVVGTLAWPSPWVIVIGSFFSTCGAGLQSLTGAPRLLQAISRDGIVPFLQVFGHGKANGEPTWALLLTACICEIGILIASLDEVAPILSMFFLMCYMFVNLACAVQTLLRTPNWRPRFRYYHWTLSFLGMSLCLALMFICSWYYALVAMLIAGLIYKYIEYRGAEKEWGDGIRGLSLSAARYALLRLEEGPPHTKNWRPQLLVLVRVDQDQNVVHPQLLSLTSQLKAGKGLTIVGSVLEGTFLDNHPQAQRAEESIRRLMEAEKVKGFCQVVISSNLRDGVSHLIQSGGLGGLQHNTVLVGWPRNWRQKEDHQTWRNFIELVRETTAGHLALLVTKNVSMFPGNPERFSEGSIDVWWIVHDGGMLMLLPFLLRHHKVWRKCKMRIFTVAQMDDNSIQMKKDLTTFLYHLRITAEVEVVEMHESDISAYTYEKTLVMEQRSQILKQMHLTKNEREREIQSITDESRGSIRRKNPANPRLRLNVPEETACDNEEKPEEEVQLIHDQSAPSCPSSSPSPGEEPEGERETDPEVHLTWTKDKSVAEKNKGPSPVSSEGIKDFFSMKPEWENLNQSNVRRMHTAVRLNEVIVNKSRDAKLVLLNMPGPPRNRNGDENYMEFLEVLTEQLDRVMLVRGGGREVITIYS |
|  | 2 | human NKCC1 (hNKCC1a, SLC12A2), twin-Strep tagged, as prepared for cryo-EM, P55011 1-1212 (natural protein) MEPRPTAPSSGAPGLAGVGETPSAAALAAARVELPGTAVPSVPEDAAPASRDGGGVRDEGPAAAGDGLGRPLGPTPSQSRFQVDLVSENAGRAAAAAAAAAAAAAAAGAGAGAKQTPADGEASGESEPAKGSEEAKGRFRVNFVDPAASSSAEDSLSDAAGVGVDGPNVSFQNGGDTVLSEGSSLHSGGGGGSGHHQHYYYDTHTNTYYLRTFGHNTMDAVPRIDHYRHTAAQLGEKLLRPSLAELHDELEKEPFEDGFANGEESTPTRDAVVTYTAESKGVVKFGWIKGVLVRCMLNIWGVMLFIRLSWIVGQAGIGLSVLVIMMATVVTTITGLSTSAIATNGFVRGGGAYYLISRSLGPEFGGAIGLIFAFANAVAVAMYVVGFAETVVELLKEHSILMIDEINDIRIIGAITVVILLGISVAGMEWEAKAQIVLLVILLLAIGDFVIGTFIPLESKKPKGFFGYKSEIFNENFGPDFREEETFFSVFAIFFPAATGILAGANISGDLADPQSAIPKGTLLAILITTLVYVGIAVSVGSCVVRDATGNVNDTIVTELTNCTSAACKLNFDFSSCESSPCSYGLMNNFQVMSMVSGFTPLISAGIFSATLSSALASLVSAPKIFQALCKDNIYPAFQMFAKGYGKNNEPLRGYILTFLIALGFILIAELNVIAPIISNFFLASYALINFSVFHASLAKSPGWRPAFKYYNMWISLLGAILCCIVMFVINWWAALLTYVIVLGLYIYVTYKKPDVNWGSSTQALTYLNALQHSIRLSGVEDHVKNFRPQCLVMTGAPNSRPALLHLVHDFTKNVGLMICGHVHMGPRRQAMKEMSIDQAKYQRWLIKNKMKAFYAPVHADDLREGAQYLMQAAGLGRMKPNTLVLGFKKDWLQADMRDVDMYINLFHDAFDIQYGVVVIRLKEGLDISHLQGQEELLSSQEKSPGTKDVVVSVEYSKKSDLDTSKPLSEKPITHKVEEEDGKTATQPLLKKESKGPIVPLNVADQKLLEASTQFQKKQGKNTIDVWWLFDDGGLTLLIPYLLTTKKKWKDCKIRVFIGGKINRIDHDRRAMATLLSKFRIDFSDIMVLGDINTKPKKENIIAFEEIIEPYRLHEDDKEQDIADKMKEDEPWRITDNELELYKTKTYRQIRLNELLKEHSSTANIIVMSLPVARKGAVSSALYMAWLEALSKDLPPILLVRGNHQSVLTFYS |
